{
  "source": "paper PMC7382501",
  "binders": {"B1": {"name": "Pfas25nt (FwPfas25nt/RvPfas25nt) (dsDNA)", "DNA 1": "TACCCGTACGTAGAACTCGCCAGTA", "DNA 2": "TACTGGCGAGTTCTACGTACGGGTA"}},
  "molecular_target": "FasR full-length (crystallisation) (Mycobacterium tuberculosis H37Rv, UniProt O05858 1-228)",
  "test": "X-ray crystallography",
  "conditions": "protein: recombinant; tags: N-terminal His6-TEV, likely cleaved with TEV; chain copies: 2; blunt",
  "data": [
    {"binder": "B1", "values": [
      {"measurement": "binding result", "value": "binds"}
    ]}
  ]
}
